# Data as given in US20200079833A1 (AstraZeneca / MedImmune, published 2020).
# Starred links: 1 amine or outer side, 2 acyl side, 3 side chain; linkers in the order of their positions; H or OH if unused. Non-standard residues stand in square brackets, D forms with d. Groups on a side chain read outwards from the residue. Primed or numbered codes have the meaning given here. No end group written: not given here. *: point of attachment. Tyr(OMe) = COc1ccc(C[C@H](N[*:1])C(=O)[*:2])cc1; γGlu = O=C(O)[C@H](CCC(=O)[*:2])N[*:1]; Stearoyl = CCCCCCCCCCCCCCCCCC(=O)*; αMeF = C[C@](N)(Cc1ccccc1)C(=O)O; αMeK = C[C@](N)(CCCCN)C(=O)O; Lauroyl = CCCCCCCCCCCC(=O)*; αMeS = C[C@](N)(CO)C(=O)O; PEG2′ = not defined here; Aib = CC(C)(N)C(=O)O
# Legend:
# Assay in all cases: cell-based or functional assay
# [1] = biological target: T1, glucose-dependent insulinotropic peptide (gastric inhibitory polypeptide) receptor (GIPR), primary cAMP assay (human, UniProt P48546 22-466)
# T1 sequence (looked up): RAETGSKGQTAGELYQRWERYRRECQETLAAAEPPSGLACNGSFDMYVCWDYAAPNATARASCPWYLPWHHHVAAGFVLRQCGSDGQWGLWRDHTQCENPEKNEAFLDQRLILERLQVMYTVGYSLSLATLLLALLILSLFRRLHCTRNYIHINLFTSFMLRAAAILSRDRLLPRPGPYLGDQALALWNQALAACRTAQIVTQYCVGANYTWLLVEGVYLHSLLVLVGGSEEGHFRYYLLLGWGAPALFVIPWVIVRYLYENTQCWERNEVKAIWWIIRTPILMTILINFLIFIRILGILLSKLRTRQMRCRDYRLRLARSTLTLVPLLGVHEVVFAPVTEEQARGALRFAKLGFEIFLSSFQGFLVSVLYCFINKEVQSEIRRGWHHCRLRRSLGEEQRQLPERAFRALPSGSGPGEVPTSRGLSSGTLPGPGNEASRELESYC
# [2] = biological target: glucagon receptor (GCGR), primary cAMP assay (human, UniProt P47871 26-477)
# [3] = biological target: GLP-1 receptor (GLP-1R), primary cAMP assay (human, UniProt P43220 24-463)
# [4] = biological target: T2, GLP-1R in the INS1e assay (UniProt P32301 22-463, limits assumed)
# T2 sequence (looked up): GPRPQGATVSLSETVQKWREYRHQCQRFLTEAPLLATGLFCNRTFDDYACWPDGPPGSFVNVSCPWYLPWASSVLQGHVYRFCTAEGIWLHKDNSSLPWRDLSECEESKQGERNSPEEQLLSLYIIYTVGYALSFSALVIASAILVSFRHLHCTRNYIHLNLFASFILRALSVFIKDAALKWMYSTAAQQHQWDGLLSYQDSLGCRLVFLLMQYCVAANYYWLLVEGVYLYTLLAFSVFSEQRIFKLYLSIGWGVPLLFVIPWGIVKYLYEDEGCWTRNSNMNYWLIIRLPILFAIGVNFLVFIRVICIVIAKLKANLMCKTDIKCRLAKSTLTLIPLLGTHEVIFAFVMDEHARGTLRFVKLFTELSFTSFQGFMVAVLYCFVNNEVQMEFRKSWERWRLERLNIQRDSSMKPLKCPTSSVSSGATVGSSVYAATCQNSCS
# glucagon receptor (GCGR), primary cAMP assay, sequence (P47871 26-477): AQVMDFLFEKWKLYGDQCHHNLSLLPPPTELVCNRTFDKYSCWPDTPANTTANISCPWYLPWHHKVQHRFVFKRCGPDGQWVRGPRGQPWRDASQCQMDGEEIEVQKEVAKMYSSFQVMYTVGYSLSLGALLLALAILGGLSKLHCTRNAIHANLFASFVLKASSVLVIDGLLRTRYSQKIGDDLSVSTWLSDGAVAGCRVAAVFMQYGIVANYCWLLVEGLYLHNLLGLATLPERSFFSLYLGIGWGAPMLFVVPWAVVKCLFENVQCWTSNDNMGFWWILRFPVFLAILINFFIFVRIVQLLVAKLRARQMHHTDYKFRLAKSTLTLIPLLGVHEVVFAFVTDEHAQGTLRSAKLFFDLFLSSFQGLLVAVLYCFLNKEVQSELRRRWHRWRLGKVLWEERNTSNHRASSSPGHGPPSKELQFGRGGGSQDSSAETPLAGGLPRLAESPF
Binder,"Primary assay EC50 (cAMP), n1 [1]","Primary assay EC50 (cAMP), n2 [1]","Primary assay EC50 (cAMP), n1 [2]","Primary assay EC50 (cAMP), n2 [2]",Primary assay EC50 (cAMP) Mean [3],"Primary assay EC50 (cAMP), n1 [3]","Primary assay EC50 (cAMP), n2 [3]",INS1e assay EC50 (cAMP) Mean [4],INS1e assay EC50 (cAMP) n1 [4],INS1e assay EC50 (cAMP) n2 [4]
H[Aib]EGS[αMeF]TSDV[αMeS]SK([PEG2′-PEG2′-γGlu-Lauroyl])LEGEAA[αMeK]EFIAWK([PEG2′-PEG2′-γGlu-Lauroyl])VEGG-NH2 [SEQ ID NO: 264],22.6 nM,22.6 nM,22.6 nM,22.6 nM,0.0128 nM,0.0182 nM,0.00737 nM,1.03 nM,0.963 nM,1.1 nM
H[Aib]EGS[αMeF]TSDV[αMeS]SK([PEG2′-PEG2′-γGlu-Lauroyl])LEGEAA[αMeK]EFIK([PEG2′-PEG2′-γGlu-Lauroyl])WVVEGG-NH2 [SEQ ID NO: 262],22.5 nM,22.5 nM,22.5 nM,22.5 nM,0.0054 nM,0.00673 nM,0.00414 nM,0.552 nM,0.7 nM,0.403 nM
H[Aib]EGS[αMeF]TSDV[αMeS]SK([PEG2′-PEG2′-γGlu-Stearoyl])LEGEAA[αMeK]E[αMeF]IAK([PEG2′-PEG2′-γGlu-Stearoyl])VVEGG-NH2 [SEQ ID NO: 410],21.5 nM,21.5 nM,21.5 nM,21.5 nM,0.187 nM,0.248 nM,0.126 nM,0.78 nM,0.698 nM,0.862 nM
H[Aib]EGS[αMeF]TSDV[αMeS]SYK([PEG2′-PEG2′-γGlu-Lauroyl])EGEAA[αMeK]EFIK([PEG2′-PEG2′-γGlu-Lauroyl])WVVEGG-NH2 [SEQ ID NO: 268],22.2 nM,22.2 nM,22.2 nM,22.2 nM,0.0048 nM,0.00446 nM,0.00505 nM,1.16 nM,1.09 nM,1.23 nM
H[Aib]EGS[αMeF]TSDV[αMeS]SK([PEG2′-PEG2′-γGlu-Lauroyl])LEGEAA[αMeK]E[Tyr(OMe)]IAK([PEG2′-PEG2′-γGlu-Lauroyl])VVEGG-NH2 [SEQ ID NO: 406],21.5 nM,21.5 nM,21.5 nM,21.5 nM,0.0023 nM,0.00219 nM,0.00231 nM,0.094 nM,0.101 nM,0.0872 nM
H[Aib]EGS[αMeF]TSDV[αMeS]SYK([PEG2′-PEG2′-γGlu-Lauroyl])EGEAA[αMeK]EFIAWK([PEG2′-PEG2′-γGlu-Lauroyl])VEGG-NH2 [SEQ ID NO: 270],22.3 nM,22.3 nM,22.3 nM,22.3 nM,0.0329 nM,0.0293 nM,0.0365 nM,1.72 nM,1.41 nM,2.02 nM
H[Aib]EGS[αMeF]TSDV[αMeS]SK([PEG2′-PEG2′-γGlu-Lauroyl])LEGEAA[αMeK]EFIAK([PEG2′-PEG2′-γGlu-Lauroyl])VVEGG-NH2 [SEQ ID NO: 263],21.5 nM,21.5 nM,21.5 nM,21.5 nM,0.0012 nM,0.000998 nM,0.00145 nM,0.132 nM,0.12 nM,0.144 nM
